Experiments:
[1] = Aggregation and fibril formation of Aβ-1-28 peptides (RPLC of supernatant, electron microscopy of pellet); assay type: physicochemical; settings: 200 μM, 24 h, 37° C., TBS
Experimental: Aβ-1-28 (FIG. 3A) and AP-1-28^AAVFA (FIG. 3B) were incubated at 200 μM in TBS for 24 h at 37° C. in a shaking water bath. After incubation, the tubes were centrifuged at 20,000 g for 20 min and the content of non-aggregated peptide in the supernatants (FIG. 3A, B) was analyzed using an established C4 RPLC system (12) whereas the aggregated peptides in the pellets were analyzed by electron microscopy after adsorption to formvar-coated grids and negative staining with 2% uranyl acetate in water.

[2] = target: T1, Aβ-1-40 (Homo sapiens, UniProt P05067); test: Surface plasmon resonance spectroscopy (BIAcore 2000), Aβ-1-40 over immobilized peptide; assay type: binding; settings: chip derivatized with KLVFF-βA-βA-C; three Aβ-1-40 concentrations, pH 7.4
T1 construct: Incubation of synthetic Aβ-1-40 at 100 μM for 48 h; host or cells: synthetic peptide (chemical synthesis)
Experimental: c) Sensorgram from BIAcore 2000. Aβ-1-40, at three different concentrations in running buffer, pH 7.4. Aβ-1-40 was injected during 10 minutes over a sensor-chip derivatized with the peptide KLVFF-βA-βA-C.
c) The interaction between soluble Aβ-1-40 and immobilized KLVFF was monitored in real-time (FIG. 2D) using surface plasmon resonance spectroscopy (BIAcore, Pharmacia) (BIAcore 2000 (Pharmacia Biosensor AB, Sweden) was used for real-time studies based on surface plasmon resonance spectroscopy. The peptide was immobilized using thiol coupling. The running buffer consisted of 10 mM HEPES, 0.15 M NaCl, 3.4 mM EDTA and 0.05% surfactant P20 as described. [U. Jansson, M. Malmqvist, Adv. Biosens. 2, 291-336 (1992)]).
d) AA served as linker between the active peptide and the chip (upper trace) and cysteine alone, indicating non-specific binding, (C) as control (lower trace). Arrows indicate start and stop of injection (FIG. 2D).

[3] = target: T2, Aβ (Aβ-16-20) (Homo sapiens, UniProt P05067); test: Binding to Aβ (Example 5)
T2 construct: It is a 40 to 42 amino acids long proteolytic fragment of the Alzheimer amyloid precursor protein (APP)
Text: (§1) By screening combinatorial pentapeptide libraries exclusively composed of D-amino acids (lowercase) with labelled KLVFF, several ligands with a motif containing phenylalanine (f) in the second and leucine (l) in the third position were identified (e.g. lflrr). By using a short peptide in the screening, known to bind to a region in Aβ critical for its polymerization (i.e. KLVFF), the risk of identifying D-pentapeptides that interact with nonrelevant regions in Aβ (N- or C-terminal to Aβ-16-20) was eliminated. […] Since peptides built up of D-amino acids are resistant to proteolytic degradation, these ligands may be beneficial for inhibition of amyloidogenesis in vivo.

[4] = target: T3, Aβ (Homo sapiens, UniProt P05067); test: Inhibition of amyloid fibril formation (Example 5); assay type: biochemical
T3 construct: It is a 40 to 42 amino acids long proteolytic fragment of the Alzheimer amyloid precursor protein (APP)

[5] = WO 95/08999; cited from earlier work
[6] = target: T4, ^125I-labelled Aβ-1-40 (Homo sapiens, UniProt P05067); test: SPOT filter-bound peptides incubated with radioactive Aβ-1-40, autoradiography and densitometry; assay type: binding; settings: 20 μM ^125I-labelled Aβ-1-40, 20° C., 12 h, TBS pH 7.3; semiquantitative
T4 construct: incubated in the presence of 20 μM ^125I-labelled Aβ-1-40; host or cells: synthetic peptide (chemical synthesis)
Text: a) Ten-mers corresponding to consecutive sequences of Aβ-1-40 were synthesized on a filter matrix using the SPOT-technique (the peptides were synthesized essentially as described by Frank [R. Frank, Tetrahedron 42, 9217-9232 (1992)]. Briefly, a spacer corresponding to 2 molecules of β-alanine was coupled to cellulose membranes (Whatman lChr). The peptides were synthesized on these derivatized membranes using Fmoc protected and pentafluorophenyl-activated amino acids (AMS Biotechnology) dissolved in N-methylpyrrolidone. Coupling efficiency was monitored using bromphenol blue.). We synthesized the thirty-one possible 10-mers of the Aβ-1-40. Peptide no. 1 corresponds to amino acids 1-10, peptide no. 2 to amino acids 2-11 etc. The filter-bound peptides were incubated with radioactive Aβ-1-40. Following washing of the filter in high-salt buffer, bound radioactivity was estimated by autoradiography and densitometry. […] Radioactivity bound to the filter was visualized by autoradiography and quantitated using a densitometer.
b) Peptide no. 11 ([…]) and indicated N- and C-terminal truncated fragments were synthesized using the same technique as described above and analyzed for affinity to ^125I-labelled Aβ-1-40.
d) Each amino acid residue in KLVFF was systematically replaced with A and analyzed for affinity to ^125I-labelled Aβ-1-40. […]

[7] = target: T5, labelled KLVFF (Homo sapiens, UniProt P05067); test: Screening of combinatorial D-amino acid pentapeptide libraries with labelled KLVFF; assay type: binding
T5 construct: with labelled KLVFF
Text: as §1

[8] = target: amyloid fibril formation (Homo sapiens, UniProt P05067); settings: literature; cited from earlier work
[9] = literature; cited from earlier work
[10] = target: T1, Aβ-1-40; test: Aβ-1-40 polymerization alone or coincubated with peptide, electron microscopy; assay type: biochemical
Experimental: Aβ-1-40 was incubated at 100 μM in TBS for 48 h at 37° C. in a shaking water bath, either alone or together with 100 μM AcKLVFFNH2. The polymerized material was adsorbed to formvar-coated grids and negatively stained with 2% uranyl acetate in water.

In the case of “Aβ-1-28^AAVFA: mutated Aβ-1-28 where the KLVFF sequence was substituted with AAVFA”, the “aggregation (non-aggregated peptide in supernatant)” value [1] is reported as “almost completely failed to aggregate”, the “fibril formation (electron microscopy)” value [1] is reported as “only formed a few dispersed fibrils” and the “fibril formation (electron microscopy)” value ([1]; listed as alanine-substituted Aβ-1-28) is reported as “does not form fibrils”.
In the case of Lys-Leu-Val-Phe-Phe [KLVFF], the “binding of soluble Aβ-1-40 to immobilized peptide (sensorgram)” value [2] is reported as “not saturable”, the “binding to Aβ” value [3] is reported as “binds stereo specifically” and the “inhibition of amyloid fibril formation” value [4] is reported as “inhibit amyloid fibril formation”. For the same compound, the “amnestic or memory enhancing effect” value [5] was “neither significantly amnestic nor memory enhancing” and the “binding of radioactive Aβ-1-40 to filter-bound peptide” value [6] was “high Aβ binding capacity”.
For lflrr, the “identified as ligand of labelled KLVFF” value [7] was “identified”.
For `Nc1c(/N=N/c2ccc(-c3ccc(/N=N/c4cc(S(=O)(=O)O)c5ccccc5c4N)cc3)cc2)cc(S(=O)(=O)O)c2ccccc12` [Congo red], the “inhibition of amyloid fibril formation” value [8] is listed as “may have such properties”.
In the case of “p3: fragment of Aβ termed p3 and corresponding to Aβ-17-40 or Aβ-17-42 (LVFFAEDVGSNKGAIIGLMVGGVV; P3(40); UniProt P05067 688-711, looked up)”, the “formation of amyloid fibrils” value [9] is listed as “not capable of forming amyloid in vitro or in vivo”.
With AcQKLVFFNH2 the “Aβ-1-40 amyloid fibril formation on coincubation with peptide” value ([10]; 100 μM Aβ-1-40 with equimolar peptide, 48 h, 37° C.) was “this type of fibrils did not form” and the “aggregates formed by the peptide itself” value ([10]; peptide alone, electron microscopy) was “small rod-like aggregates”.
For “Aβ-1-28: a well-studied Aβ fragment that readily forms amyloid fibrils [reference compound]”, the “aggregation (non-aggregated peptide in supernatant)” value [1] is listed as “aggregated”, the “fibril formation (electron microscopy)” value [1] is listed as “formed large fibril bundles” and the “formation of amyloid fibrils” value [9] is listed as “readily forms amyloid fibrils”.

— patent US7288523B2, “Peptide binding the KLVFF-sequence of amyloid-β” (Neurochem (International) Limited, priority 1995, dated 2007)
